Results published in patent US20250179196A1 (Janssen / Centocor, published 2025).

T1: Recombinant human IL-23 receptor (IL-23R) extracellular domain (ECD) protein (human, UniProt Q5VWK5 24-355)
T1 construct: also called human IL-23R ECD; hu IL-23R ECD
T1 sequence: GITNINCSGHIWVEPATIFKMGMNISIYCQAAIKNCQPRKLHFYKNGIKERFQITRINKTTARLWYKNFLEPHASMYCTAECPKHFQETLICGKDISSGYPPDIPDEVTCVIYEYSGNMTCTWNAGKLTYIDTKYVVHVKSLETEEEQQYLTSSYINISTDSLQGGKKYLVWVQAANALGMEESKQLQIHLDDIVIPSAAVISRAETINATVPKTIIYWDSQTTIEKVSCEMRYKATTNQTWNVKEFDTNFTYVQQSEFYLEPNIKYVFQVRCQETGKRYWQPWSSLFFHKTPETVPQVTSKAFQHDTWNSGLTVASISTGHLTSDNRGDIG

T2: rat IL-23R extracellular domain (ECD) protein (rat)
T2 construct: also called rat IL-23R ECD; F1LX96 amino acids 24-354
T2 chain: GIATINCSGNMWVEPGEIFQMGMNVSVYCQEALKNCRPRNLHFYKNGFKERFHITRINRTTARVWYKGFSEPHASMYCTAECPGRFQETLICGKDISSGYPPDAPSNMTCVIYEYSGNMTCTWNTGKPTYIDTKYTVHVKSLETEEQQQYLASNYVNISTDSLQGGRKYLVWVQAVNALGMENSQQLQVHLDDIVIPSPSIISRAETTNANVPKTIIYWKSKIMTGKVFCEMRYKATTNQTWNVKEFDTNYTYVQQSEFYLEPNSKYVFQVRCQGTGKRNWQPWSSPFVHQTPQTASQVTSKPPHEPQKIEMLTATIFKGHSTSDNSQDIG

B1: I23RB61 (antibody, mouse IgG2a, kappa, V domains shown)
VH: DVQLQESGAELVKPGASVKLSCKSFDYTFTSFDINWMKQRPGQGLEWIGWIFPGSGTTNYNEKFKGKATLTADKSSSTAYMHLTSLTSEDSAVYFCARRLTGTRYFDVWGTGTTLTVSS
VL: DIQMTQSHKFLSTSVGDRITITCKASQDVITAVAWYQQKSGQSPKLLIYWASTRHTGVPDRFTGSGSGTDYTLTISNVQAEDLALYYCQQHYTTPPTFGAGTKLELKR
notes: mouse immunization; mouse IgG2a/kappa
B2: I23RB58 (antibody, mouse IgG2a, kappa, V domains shown)
VH: EVKLVESGGGLVKPGGSLKLSCAASGFSFIIYTMSWVRQTPEKRLEWVAYITSGGGITYYPDSVKGRFTISRDNARNTLYLQMSSLRSEDTAMYYCARHEGDYYDDYYRIGYAMDYWGQGTSVTVSS
VL: DIVMTQTPASLAVSLGQRATISCRASESVDSYGNSFMHWYQQKPGQPPKLLIYRASNLESGIPARFSGSGSRTDFTLTINPVEADDVATYYCQQSNEDPLTFGAGTKLEMKR
notes: as for B1
B3: I23RB56 (antibody, mouse IgG2a, kappa, V domains shown)
VH: EVKLVESGGGLVKPGGSLKLSCAASGFTFSSYAMSWVRQTPEKRLEWVAAINSNDGSTYYPDTVKDRFTISRDNAKNTLYLQMSSLRSEDTALYYCARHFLYFSNFYYFDYWGQGTTLTVSS
VL: DIVMTQSPKFLLVSAGDRVTITCKASQSVSNDVAWYQQKPGQSPKLLIYYASNRYTGVPDRFTGSGYGTVFTFTISTVQAEDLAVYFCQQDYSSPFTFGSGTKLEIKR
notes: as for B1
B4: I23RB60 (antibody, mouse IgG2a, kappa, V domains shown)
VH: DVQLQESGPELVKPGDSVKMSCEASGYTFTDYYIDWVKQSHGKSLEWIGYIYPNNGGISFNQKFEGKATLTVDKSSSTAYMELHSLTSEDSAVYYCAREKLRGRDYWGQGTTLTVSS
VL: DIVMTQSTSSLSASLGDRVTISCRASQDIRNNLNWYQQKPDGTVKLLIFYSSRLHSGVPSRFSGSGSGTDYSLTISNLEQEDIATYFCQQGHTLPWTFGAGTKLELKR
notes: as for B1
B5: I23RB73 (antibody, mouse IgG2a, kappa, V domains shown)
VH: EVQLQQSGAELVKPGASVKISCKASGYTFTDHAIHWVKQRPEQGLEWIGYISLGNGDIKYSEKFRGKATLTADKTSNTAYMQLNSLTSEDSAVYFCKRSRVLRWTTYWYFDVWGAGTSVTVSS
VL: DIVMTQSHKFMSTSVGDRVSITCKASQDVSTAVAWYQQKPGQSPKLLIYWASTRLTGVPDRFTGSGSGTDYTLTISSVQAEDLALYYCQQYYNTPLTFGAGTKLELKR
notes: as for B1
B6: I23RB39 (antibody, mouse IgG2a, kappa, V domains shown)
VH: EVQLQQSGPELVKPGAPVKISCKASGYTFTNYYIHWVKQRPGQGLEWIGYIYPGNGGTAYNQKFKDKATLTADNPSSTAYMQLSSLTSEDSAVYFCARSRGGSRNYFDYWGQGTTLTVSS
VL: DIQMTQSHKFMSTSVGDRVSITCKASQDVSTAVAWYQQKPGQSPKLLIYSAFYRYTGVPDRFTGSGSGTDFTFTISSVQAEDLAVYYCQQHYSSPRTFGAGTKLELKR
notes: as for B1

Target: T1, Recombinant human IL-23 receptor …
Experiment: SPR Biacore 8K, supernatant, analysis 2
Method in brief: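 mAbs captured (~150 RU) on Biacore 8K; human or rat IL-23R ECD injected at 0.8–500 nM (5-fold series) at 25 °C in HBS-P+ with 100 μg/ml BSA. Association 3 min at 50 μL/min, dissociation 30 min. Ka, Kd and KD from Langmuir 1:1 fit.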

Point of comparison: B3, Kd 25.5 nM. Against it:
- B1 — 4.6-fold lower, 5.5 nM
- B2 — within 1.5-fold, 22.5 nM
- B4 — 55-fold lower, 0.466 nM
- B5 — 1.9-fold lower, 13.7 nM
- B6 — 1.7-fold lower, 14.9 nM

Point of comparison: B6, koff 0.00716 s⁻¹. Against it:
- B1 — 3.7-fold lower, 0.00195 s⁻¹
- B2 — within 1.5-fold, 0.00523 s⁻¹
- B3 — within 1.5-fold, 0.00898 s⁻¹
- B4 — 42-fold lower, 0.000169 s⁻¹
- B5 — 2.4-fold lower, 0.00293 s⁻¹

Point of comparison: B1, kon 355000 M⁻¹ s⁻¹. Against it:
- B2 — 1.5-fold lower, 233000 M⁻¹ s⁻¹
- B3 — within 1.5-fold, 352000 M⁻¹ s⁻¹
- B4 — within 1.5-fold, 362000 M⁻¹ s⁻¹
- B5 — 1.7-fold lower, 213000 M⁻¹ s⁻¹
- B6 — within 1.5-fold, 482000 M⁻¹ s⁻¹

Target: T2, rat IL-23R extracellular domain (ECD) …
Experiment: SPR Biacore 8K, supernatant
Method: (§1) Affinity by SPR using Biacore 8K. Affinity measurements using Surface Plasmon Resonance (SPR) were performed using a Biacore 8K system (Cytiva). […] Approximately 9000-10000 RU (response units) of mAbs were immobilized. The kinetic experiments were performed at 25° C. in running buffer 1× of (HBS-P+ Buffer 10× (Cytiva #BR100671)+100 μg/ml BSA). To perform kinetic experiments, approximately 150 RU of mAbs were captured followed by injections of human IL-23R or rat IL-23R at concentrations ranging from 0.8 nM to 500 nM (in a 5-fold serial dilution). The association phase was monitored for 3 minutes at 50 μL/min, then followed by 30 minutes of buffer flow (dissociation phase). […] The collected data were processed using Biacore insight Evaluation software (Version 3.0.12.15655). The kinetic analysis of the data was performed using a Langmuir 1:1 binding model. The result for each mAb was reported in the format of Ka (On-rate), Kd (Off-rate) and KD (equilibrium dissociation constant).

B1: no binding (tested: 500 nM).
B2: no binding (tested: 500 nM).
B4: no binding (tested: 500 nM).
B5: no binding (tested: 500 nM).
B6: no binding (tested: 500 nM).

B3 showed a Kd of 715 nM.

Binder B3 has a koff of 0.0642 s⁻¹.

With B3 the kon was 89700 M⁻¹ s⁻¹.

Target: T1, Recombinant human IL-23 receptor …
Experiment: SPR Biacore 8K, supernatant, analysis 1
Method: as §1

Point of comparison: B3, Kd 68.4 nM. Against it:
- B1 — 3.1-fold lower, 22.1 nM
- B2 — 4.2-fold lower, 16.2 nM
- B4 — 94-fold lower, 0.731 nM
- B5 — 5.8-fold lower, 11.7 nM
- B6 — 2.1-fold lower, 32 nM

Point of comparison: B6, koff 0.00739 s⁻¹. Against it:
- B1 — within 1.5-fold, 0.0101 s⁻¹
- B2 — within 1.5-fold, 0.00532 s⁻¹
- B3 — 1.6-fold higher, 0.0115 s⁻¹
- B4 — 34-fold lower, 0.000218 s⁻¹
- B5 — 2-fold lower, 0.00378 s⁻¹

Point of comparison: B6, kon 231000 M⁻¹ s⁻¹. Against it:
- B1 — 2-fold higher, 459000 M⁻¹ s⁻¹
- B2 — within 1.5-fold, 328000 M⁻¹ s⁻¹
- B3 — within 1.5-fold, 168000 M⁻¹ s⁻¹
- B4 — within 1.5-fold, 298000 M⁻¹ s⁻¹
- B5 — within 1.5-fold, 322000 M⁻¹ s⁻¹
